Experimental data reported in the supplement of paper PMC7877785.
± gives the uncertainty stated by the source.

Experiment: self-splicing fitness, log relative to wild type (ln ratio); higher = more splicing; Tetrahymena group I intron in knt gene, E. coli kanamycin selection, DiMSum; sequences stand for … in CUCUCU…GGAGGGAAAAGUUAUCAGGCAUGCACCUGGUAGCUAGUCUUUAAACCAAUAGAUUGCAUCGGUUUAAAAGGCAAGACCGUCAAAUUGCGGGAAAGGGGUCAACAGCCGUUCAGUACCAAGUCUCAGGGGAAACUUUGAGAUGGCCUUGCAAAGGGUAUGGUAAUAAGCUGACGGACAUGGUCCUAACCACGCAGCCAAGUCCUAAGUCAACAGAUCUUCUGUUGAUAUGGAUGCAGUUCACAGACUAAAUGUCGGUCGGGGAAGAUGUAUUCUUCUCAUAAGAUAUAGUCGGACCUCUCCUUAAUGGGAGCUAGCGGAUGAAGUGAUGCAACACUGGAGCCGCUGGGAACUAAUUUGUAUGCGAAAGUAUAUUGAUUAGUUUUGGAGUACUCGUGGUCG
How it was run: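 Library with all eight P1ex-region intron nucleotides randomised, intron inside the knt kanamycin-resistance gene on pET-22b(+), in E. coli BL21(DE3). Cells grew overnight at 37°C or 30°C on LB agar with or without 25 μg/mL kanamycin (plus 100 μg/mL carbenicillin, 50 μM IPTG, 0.2% rhamnose), in six replicate transformations. Pooled colonies were amplicon-sequenced on Illumina HiSeq 2500. DiMSum fitness is the error-weighted combination of wild-type-normalised replicate fold changes, kanamycin versus none.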

| Sequence | self-splicing fitness (ln) (30 °C) | self-splicing fitness (ln) (37 °C) |
| --- | --- | --- |
| GCAUAGCAAUAUUACGACUU | -0.481 ± 0.078 | -0.0367 ± 0.089 |
| GCAUAGCAAUAUUACGAGAU | -3.61 ± 0.46 | -2.13 ± 0.33 |
| GCAUAGCAAUAUUACGAGGC | -3.26 ± 0.43 | -1.27 ± 0.36 |
| GCAUAGCAAUAUUACGCAAC | -3.96 ± 0.33 | -2.6 ± 0.37 |
| GCAUAGCAAUAUUACGCACA | -0.886 ± 0.11 | 0.000212 ± 0.091 |
| GCAUAGCAAUAUUACGCGCA | -1.09 ± 0.12 | -0.397 ± 0.14 |
| GCAUAGCAAUAUUACGCGGC | -3.32 ± 0.33 | -2.38 ± 0.34 |
| GCAUAGCAAUAUUACGCGGG | -3.23 ± 0.14 | -0.875 ± 0.11 |
| GCAUAGCAAUAUUACGCUCG | -0.827 ± 0.11 | -0.165 ± 0.13 |
| GCAUAGCAAUAUUACGCUGU | -3.06 ± 0.17 | -1.69 ± 0.23 |
| GCAUAGCAAUAUUACGGAUU | -2.81 ± 0.11 | -1.29 ± 0.097 |
| GCAUAGCAAUAUUACGGCGU | -0.347 ± 0.091 | 0.0454 ± 0.089 |
| GCAUAGCAAUAUUACGGCUG | -1.97 ± 0.16 | -1.22 ± 0.18 |
| GCAUAGCAAUAUUACGGUAA | -2.31 ± 0.16 | -0.658 ± 0.15 |
| GCAUAGCAAUAUUACGGUAG | -3.52 ± 0.26 | -3.01 ± 0.3 |
| GCAUAGCAAUAUUACGGUCU | -1.57 ± 0.098 | -0.521 ± 0.092 |
| GCAUAGCAAUAUUACGGUGA | -0.491 ± 0.11 | 0.678 ± 0.13 |
| GCAUAGCAAUAUUACGUAUG | -2.85 ± 0.17 | -2.44 ± 0.26 |
| GCAUAGCAAUAUUACGUCAU | -3.5 ± 0.16 | -1.89 ± 0.098 |
| GCCAAGCAAUAUUACGAAUA | -2.96 ± 0.17 | -2.72 ± 0.18 |
| GCCAAGCAAUAUUACGACUC | -0.25 ± 0.08 | 0.136 ± 0.098 |
| GCCAAGCAAUAUUACGACUG | -4.32 ± 0.23 | -1.94 ± 0.15 |
| GCCAAGCAAUAUUACGACUU | -2.29 ± 0.15 | -1.68 ± 0.16 |
| GCCAAGCAAUAUUACGAUGA | -3.12 ± 0.19 | -1.66 ± 0.12 |

| Sequence | self-splicing fitness (ln) (30 °C) | self-splicing fitness (ln) (37 °C) |
| --- | --- | --- |
| GCCAAGCAAUAUUACGCACC | -0.566 ± 0.22 | 0.932 ± 0.41 |
| GCCAAGCAAUAUUACGCCAC |  | -1.25 ± 0.27 |
| GCCAAGCAAUAUUACGCCUA | -0.609 ± 0.16 | -0.61 ± 0.18 |
| GCCAAGCAAUAUUACGCGUG | -3.46 ± 0.11 | -1.97 ± 0.1 |
| GCCAAGCAAUAUUACGCUCC | -0.474 ± 0.14 | 0.717 ± 0.17 |
| GCCAAGCAAUAUUACGCUUC | -2.75 ± 0.14 | -1.17 ± 0.16 |
| GCCAAGCAAUAUUACGCUUU | -0.998 ± 0.051 | -1.18 ± 0.072 |
| GCCAAGCAAUAUUACGGAGU | -0.992 ± 0.066 | -1.57 ± 0.09 |
| GCCAAGCAAUAUUACGGCCA | -1.42 ± 0.21 | -1.18 ± 0.25 |
| GCCAAGCAAUAUUACGGGCC |  | -2.13 ± 0.32 |
| GCCAAGCAAUAUUACGGGGG | -4.11 ± 0.19 | -2.35 ± 0.14 |
| GCCAAGCAAUAUUACGGGGU | -4.5 ± 0.18 | -2.55 ± 0.14 |
| GCCAAGCAAUAUUACGGUCA | -1.59 ± 0.078 | -0.271 ± 0.067 |
| GCCAAGCAAUAUUACGGUUA | -0.632 ± 0.072 | -0.00086 ± 0.07 |
| GCCAAGCAAUAUUACGUAGG | -3.32 ± 0.18 | -1.78 ± 0.17 |
| GCCAAGCAAUAUUACGUCAG | -3.6 ± 0.23 | -2.73 ± 0.28 |
| GCCAAGCAAUAUUACGUGCA | -1.63 ± 0.087 | -0.541 ± 0.09 |
| GCCAAGCAAUAUUACGUUGA | -2.53 ± 0.065 | -1.39 ± 0.065 |
| GCCCAGCAAUAUUACGACAG | -3.6 ± 0.19 | -1.78 ± 0.14 |
| GCCCAGCAAUAUUACGACCC | -0.0226 ± 0.14 | -0.0967 ± 0.21 |
| GCCCAGCAAUAUUACGACCU | -1.07 ± 0.12 | -0.407 ± 0.15 |
| GCCCAGCAAUAUUACGACGA | -1.31 ± 0.15 | -0.475 ± 0.15 |
| GCCCAGCAAUAUUACGAGGU | -3.81 ± 0.2 | -3.07 ± 0.22 |
| GCCCAGCAAUAUUACGAGUU | -1.13 ± 0.048 | -0.432 ± 0.066 |

| Sequence | self-splicing fitness (ln) (30 °C) | self-splicing fitness (ln) (37 °C) |
| --- | --- | --- |
| GCCCAGCAAUAUUACGAUAG | -2.76 ± 0.14 | -3.33 ± 0.2 |
| GCCCAGCAAUAUUACGCCUU | -1.02 ± 0.081 | 0.189 ± 0.088 |
| GCCCAGCAAUAUUACGCGAG | -2.72 ± 0.11 | -1.73 ± 0.13 |
| GCCCAGCAAUAUUACGCGGG | -3.71 ± 0.2 | -2.31 ± 0.22 |
| GCCCAGCAAUAUUACGCUCU | 0.00415 ± 0.05 | 0.138 ± 0.066 |
| GCCCAGCAAUAUUACGCUUC | -1.18 ± 0.089 | -1.33 ± 0.091 |
| GCCCAGCAAUAUUACGGAAU | -0.828 ± 0.056 | 0.223 ± 0.078 |
| GCCCAGCAAUAUUACGGGUA | -1.34 ± 0.061 | -0.511 ± 0.06 |
| GCCCAGCAAUAUUACGGGUU | -3.01 ± 0.12 | -3.4 ± 0.19 |
| GCCCAGCAAUAUUACGGUCG | -1.61 ± 0.083 | -1.31 ± 0.096 |
| GCCCAGCAAUAUUACGGUCU | -1.97 ± 0.063 | -0.732 ± 0.081 |
| GCCCAGCAAUAUUACGUAGU | -0.118 ± 0.051 | -0.0932 ± 0.066 |
| GCCCAGCAAUAUUACGUCUG | -3.86 ± 0.14 | -2.73 ± 0.17 |
| GCCCAGCAAUAUUACGUGCU | -3.14 ± 0.16 | -2.88 ± 0.21 |
| GCCCAGCAAUAUUACGUUCC | -1.28 ± 0.096 | -0.603 ± 0.14 |
| GCCCAGCAAUAUUACGUUGC | -1.11 ± 0.063 | -0.368 ± 0.094 |
| GCCGAGCAAUAUUACGAAUG | -3.59 ± 0.3 | -2.75 ± 0.27 |
| GCCGAGCAAUAUUACGACUU | -1.04 ± 0.31 | -0.625 ± 0.34 |
| GCCGAGCAAUAUUACGAGGA | -1.32 ± 0.11 | -0.747 ± 0.1 |
| GCCGAGCAAUAUUACGAUCA | -1.91 ± 0.12 | -1.69 ± 0.15 |
| GCCGAGCAAUAUUACGCAAA |  | -1.05 ± 0.34 |
| GCCGAGCAAUAUUACGCAAG | -2.91 ± 0.44 | -1.25 ± 0.36 |
| GCCGAGCAAUAUUACGCCUG | -3.59 ± 0.23 | -2.03 ± 0.22 |
| GCCGAGCAAUAUUACGCGGA | -1.04 ± 0.17 | 0.224 ± 0.14 |

| Sequence | self-splicing fitness (ln) (30 °C) | self-splicing fitness (ln) (37 °C) |
| --- | --- | --- |
| GCCGAGCAAUAUUACGCGUG | -2.05 ± 0.088 | -1.32 ± 0.091 |
| GCCGAGCAAUAUUACGCUCA | -0.335 ± 0.17 | -0.829 ± 0.21 |
| GCCGAGCAAUAUUACGGAGC | -2.69 ± 0.44 |  |
| GCCGAGCAAUAUUACGGCCC | -2.4 ± 0.19 | -1.93 ± 0.24 |
| GCCGAGCAAUAUUACGGCGC | -1.48 ± 0.23 | -0.221 ± 0.23 |
| GCCGAGCAAUAUUACGGGAA | -1.01 ± 0.073 | -0.813 ± 0.088 |
| GCCGAGCAAUAUUACGGGCA | -2.24 ± 0.25 | -0.776 ± 0.17 |
| GCCGAGCAAUAUUACGGGCU | -3.27 ± 0.23 | -2.43 ± 0.27 |
| GCCGAGCAAUAUUACGGUAA | -0.184 ± 0.11 | -0.414 ± 0.091 |
| GCCGAGCAAUAUUACGGUGU | -2.57 ± 0.11 | -0.986 ± 0.11 |
| GCCGAGCAAUAUUACGUAUU | -3.72 ± 0.21 | -1.9 ± 0.15 |
| GCCGAGCAAUAUUACGUCCG | -3.69 ± 0.28 | -2.87 ± 0.29 |
| GCCGAGCAAUAUUACGUGAG | -1.23 ± 0.09 | -0.333 ± 0.12 |
| GCCGAGCAAUAUUACGUGUC | -3.23 ± 0.14 | -1.64 ± 0.12 |
| GCCGAGCAAUAUUACGUUGA | -3 ± 0.16 | -2.88 ± 0.2 |
| GCCGAGCAAUAUUACGUUUC | -3.12 ± 0.14 | -2.28 ± 0.15 |
| GCCUAGCAAUAUUACGAAGA | -1.82 ± 0.24 | -0.65 ± 0.12 |
| GCCUAGCAAUAUUACGACUA |  | -1.93 ± 0.38 |
| GCCUAGCAAUAUUACGAGCA | -2.26 ± 0.33 | -0.418 ± 0.17 |
| GCCUAGCAAUAUUACGCACA | -0.975 ± 0.12 | -0.604 ± 0.13 |
| GCCUAGCAAUAUUACGCAUU | -0.686 ± 0.051 | -0.35 ± 0.062 |
| GCCUAGCAAUAUUACGCCAC | -2.82 ± 0.26 | -2.2 ± 0.23 |
| GCCUAGCAAUAUUACGCGAC | -1.92 ± 0.19 | -1.05 ± 0.27 |
| GCCUAGCAAUAUUACGCGAG | -2.33 ± 0.21 | -2.29 ± 0.16 |
